Measurements from patent publication US6949366 (Amgen, dated 2005).

Assays:
[1] = biological target: T1, soluble rat elk/Fc fusion protein (rat; human, UniProt P09759 18-540; P01857 99-330 = IgG part, limits assumed); test: indirect Scatchard binding: elk/Fc titrated on CV1-EBNA-1 cells expressing hek-L A2, detected with 125I mouse anti-human IgG; biphasic, first component
T1 construct: extracellular domain;domain: Fc region; The junction between elk and Fc is not described

[2] = biological target: T1, soluble rat elk/Fc fusion protein; test: indirect Scatchard binding: elk/Fc titrated on CV1-EBNA-1 cells expressing hek-L A2, detected with 125I mouse anti-human IgG; biphasic, second component
[3] = biological target: T1, soluble rat elk/Fc fusion protein; test: indirect Scatchard binding: elk/Fc titrated on CV1-EBNA-1 cells expressing hek-L C6, detected with 125I mouse anti-human IgG; biphasic, second component
[4] = biological target: T1, soluble rat elk/Fc fusion protein; test: indirect Scatchard binding: elk/Fc titrated on CV1-EBNA-1 cells expressing hek-L C6, detected with 125I mouse anti-human IgG; biphasic, first component
[5] = biological target: T1, soluble rat elk/Fc fusion protein; test: indirect Scatchard binding: elk/Fc titrated on CV1-EBNA-1 cells expressing B61; biphasic, first component as the text prints it (differs from the table's cell)
[6] = biological target: T1, soluble rat elk/Fc fusion protein; test: indirect Scatchard binding: elk/Fc titrated on CV1-EBNA-1 cells expressing B61, detected with 125I mouse anti-human IgG; biphasic, first component (the cell prints 23, the text at paragraph 137 prints 2.3)
[7] = biological target: T1, soluble rat elk/Fc fusion protein; test: indirect Scatchard binding: elk/Fc titrated on CV1-EBNA-1 cells expressing B61, detected with 125I mouse anti-human IgG; biphasic, second component
[8] = biological target: T1, soluble rat elk/Fc fusion protein; test: indirect Scatchard binding: elk/Fc titrated on CV1-EBNA-1 cells expressing elk-L, detected with 125I mouse anti-human IgG

T1 sequence (P09759 other isoform, or with tags, fused parts or gaps limits assumed): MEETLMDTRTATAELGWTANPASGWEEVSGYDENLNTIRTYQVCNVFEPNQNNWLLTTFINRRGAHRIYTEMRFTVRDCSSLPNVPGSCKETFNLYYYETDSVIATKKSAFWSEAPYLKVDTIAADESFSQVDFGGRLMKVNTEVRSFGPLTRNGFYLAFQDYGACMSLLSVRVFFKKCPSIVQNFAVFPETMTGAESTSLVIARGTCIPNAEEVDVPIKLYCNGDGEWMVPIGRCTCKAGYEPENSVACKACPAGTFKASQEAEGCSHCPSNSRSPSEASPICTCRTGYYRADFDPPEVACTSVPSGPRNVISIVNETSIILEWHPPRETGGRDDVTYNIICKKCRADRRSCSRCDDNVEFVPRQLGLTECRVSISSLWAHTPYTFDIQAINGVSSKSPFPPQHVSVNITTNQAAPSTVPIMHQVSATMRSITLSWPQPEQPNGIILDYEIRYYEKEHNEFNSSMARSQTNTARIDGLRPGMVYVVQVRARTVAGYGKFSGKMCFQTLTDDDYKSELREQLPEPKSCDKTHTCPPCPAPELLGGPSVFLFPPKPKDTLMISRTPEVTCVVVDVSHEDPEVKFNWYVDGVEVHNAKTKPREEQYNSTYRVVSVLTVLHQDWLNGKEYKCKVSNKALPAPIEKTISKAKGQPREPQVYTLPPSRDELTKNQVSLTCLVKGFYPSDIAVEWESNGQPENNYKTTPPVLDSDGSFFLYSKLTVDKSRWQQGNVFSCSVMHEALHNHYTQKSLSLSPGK

B1: human hek ligand encoded by clone A2 (ligand)
chain: LLAQGPGGALGNRHAVYWNSSNQHLRREGYTVQVNVNDYLDIYCPHYNSSGVGPGAGPGPGGGAEQYVLYMVSRNGYRTCNASQGFKRWECNRPHAPHSPIKFSEKFQRYSAFSLGYEFHAGHEYYYISTPTHNLHWKCLRMKVFVCCASTSHSGEKPVPTLPQFTMGPNVKINVLEDFEGENPQVPKLEKSIS
modifications: GPI anchor at the C-terminus after cleavage (likely on Ser 194 in the filing's numbering; site not determined)
notes: Expressed from the full-length clone A2 cDNA in pDC410 on CV1-EBNA-1 cells and held on the membrane by a GPI anchor; also called hek-L A2; hek ligand A2
Ka [1]: 2.7e+08 M⁻¹ | Ka [2]: 3.5e+07 M⁻¹

B2: human hek ligand encoded by clone C6 (ligand)
chain: GSSLRHVVYWNSSNPRLLRGDAVVELGLNDYLDIVCPHYEGPGPPEGPETFALYMVDWPGYESCQAEGPRAYKRWVCSLPFGHVQFSEKIQRFTPFSLGFEFLPGETYYYISVPTPESSGQCLRLQVSVCCKERKSESAHPVGSPGES
modifications: GPI anchor at the C-terminus after cleavage (likely on Ser 148 in the filing's numbering; site not determined)
notes: Expressed from the full-length clone C6 cDNA in pDC410 on CV1-EBNA-1 cells and held on the membrane by a GPI anchor; also called hek-L C6; hek ligand C6
Ka [3]: 5.4e+07 M⁻¹ | Ka [4]: 1.3e+08 M⁻¹

B3: human B61 (ligand, UniProt P20827 19-182, looked up)
chain: DRHTVFWNSSNPKFRNEDYTIHVQLNDYVDIICPHYEDHSVADAAMEQYILYLVEHEEYQLCQPQSKDQVRWQCNRPSAKHGPEKLSEKFQRFTPFTLGKEFKEGHSYYYISKPIHQHEDRCLRLKVTVSGKITHSPQAHDNPQEKRLAADDPEVRVLHSIGHS
notes: whole, on cells
Ka [5]: 2.3e+08 M⁻¹ | Ka [6]: 2.3e+09 M⁻¹ | Ka [7]: 7e+07 M⁻¹

B4: human elk ligand (ligand, UniProt P98172 28-346, looked up)
chain: LAKNLEPVSWSSLNPKFLSGKGLVIYPKIGDKLDIICPRAEAGRPYEYYKLYLVRPEQAAACSTVLDPNVLVTCNRPEQEIRFTIKFQEFSPNYMGLEFKKHHDYYITSTSNGSLEGLENREGGVCRTRTMKIIMKVGQDPNAVTPEQLTTSRPSKEADNTVKMATQAPGSRGSLGDSDGKHETVNQEEKSGPGASGGSSGDPDGFFNSKVALFAAVGAGCVIFLLIIIFLTVLLLKLRKRHRKHTQQRAAALSLSTLASPKGGSGTAGTEPSDIIIPLRTTENNYCPHYEKVSGDYGHPVYIVQEMPPQSPANIYYKV
notes: whole, on cells
Ka [8]: 1.08e+09 M⁻¹
